In article PMC5991677, “3-methylcrotonyl Coenzyme A (CoA) carboxylase complex is involved in the Xanthomonas citri subsp. citri lifestyle during citrus infection” (PLoS ONE, 2018):

Experiments:
[1] = target: His-AccD, β subunit of the 3-methylcrotonyl-CoA carboxylase (MCC) complex of Xanthomonas citri subsp. citri (XAC0264) (Xanthomonas citri subsp. citri) (UniProt Q8PJ30); assay: SEC; Superdex S200, 500 μg of AccC, AccD or the complex (preincubated mixture of both) loaded; 50 mM potassium phosphate pH 7.6, 50 mM NaCl, 0.5 mM DTT; calibrated with mass standards; fractions of the complex analysed by SDS-PAGE
[2] = tested on: CC(C)=CC(=O)SCCNC(=O)CCNC(=O)[C@H](O)C(C)(C)COP(=O)(O)OP(=O)(O)OC[C@H]1O[C@@H](n2cnc3c(N)ncnc32)[C@H](O)[C@@H]1OP(=O)(O)O; assay: purified protein; conditions: co-substrates ATP and bicarbonate, Mg; 3-methylcrotonyl-CoA varied 1-1000 μM; enzyme complex 0.05 μM (Fig 4 legend says 0.5 μM)

| Substance | stoichiometry N [1] | Km [2] |
| --- | --- | --- |
| His-AccC, α subunit of the 3-methylcrotonyl-CoA carboxylase (MCC) complex of Xanthomonas citri subsp. citri (XAC0263) (from UniProt A0AAI8ER48 1-675) (natural protein) | 1 |  |
| His-AccD, β subunit of the 3-methylcrotonyl-CoA carboxylase (MCC) complex of Xanthomonas citri subsp. citri (XAC0264) (from UniProt Q8PJ30 1-295) (natural protein) | 6 |  |
| MCC complex (His-AccC / His-AccD, α6β6) (Xanthomonas citri subsp. citri 306) |  | 71.4 µM |
